Here are results for eleven sequences from the Immune Epitope Database (IEDB).

What is called Kd is the equilibrium constant for the complex coming apart.

For one assay, the target named is HLA-A*02:12. The experiment in a line: IEDB peptide-MHC binding, purified MHC/competitive/fluorescence; filed as Kd, often an IC50 or EC50 that approximates it; ≥ and ≤ were set here for values at or beyond the usual limits of such assays.
The next assay deals with HLA-B*51:01. The description is as above.
The target of the next assay is HLA-A*02:03. The description is as above. As to conditions: source organism: Vibrio parahaemolyticus K5030.
Assay [1] concerns the target HLA-A*02:01. Described as above.
For assay [2], the target named is HLA-B*57:01. The assay is described as above.
A further assay deals with HLA-B*46:01. The description is as above.
Assay [3] has as its target HLA-A*26:01. The assay is described as above.
In another assay the target is HLA-A*29:02. Described as above.
In another assay the target is HLA-A*02:11. The assay is described as above. The settings on record: source organism: Vibrio parahaemolyticus K5030.
In assay [4] the target is HLA-A*03:01. The description is as above.
The target of a further assay is HLA-B*27:03. The assay is described as above.
A further assay concerns the target HLA-A*02:19. Described as above.
The next assay concerns the target HLA-B*18:01. Described as above.
For a further assay, the target named is HLA-B*39:01. The assay is described as above.
Assay [5] has as its target HLA-B*15:01. Described as above. As to conditions: source organism: Vibrio parahaemolyticus K5030.
The target of assay [6] is HLA-A*01:01. The description is as above. The settings on record: source organism: Homo sapiens.
The next assay concerns the target HLA-B*35:01. The experiment in a line: IEDB peptide-MHC binding, purified MHC/direct/fluorescence; filed as Kd, often an IC50 or EC50 that approximates it; ≥ and ≤ were set here for values at or beyond the usual limits of such assays.
For assay [7], the target named is HLA-A*02:01. Described as above.
The next assay concerns the target HLA-B*44:02. The description is as above.
In assay [8] the target is HLA-A*26:01. The assay is described as above.
For another assay, the target named is HLA-B*40:01. The description is as above.
Another assay deals with HLA-B*08:01. The description is as above.
In the next assay the target is HLA-A*31:01. Described as above.
Another assay has as its target HLA-B*27:05. The description is as above.
The target in assay [9] is HLA-A*03:01. The assay is described as above.
A further assay addresses HLA-B*07:02. The description is as above.
Another assay deals with HLA-A*69:01. Described as above.
Another assay deals with HLA-C*15:02. The assay is described as above.
A further assay concerns the target HLA-B*58:01. Described as above.
In assay [10] the target is HLA-B*15:17. The description is as above. As to conditions: source organism: Giardia lamblia ATCC 50803.
In a further assay the target is HLA-A*11:01. Described as above.
In assay [11] the target is HLA-A*01:01. The assay is described as above.
Assay [12] addresses HLA-B*15:01. The assay is described as above.
The next assay concerns the target HLA-A*24:03. The assay is described as above. As to conditions: source organism: Tick-borne encephalitis virus.
The target of assay [13] is HLA-B*15:17. The experiment in a line: IEDB peptide-MHC binding, purified MHC/competitive/fluorescence; filed as Kd, often an IC50 or EC50 that approximates it; ≥ and ≤ were set here for values at or beyond the usual limits of such assays. As to conditions: source organism: Canarypox virus.
For a further assay, the target named is HLA-A*68:02. Kind of assay: IEDB peptide-MHC binding, purified MHC/direct/fluorescence; filed as Kd, often an IC50 or EC50 that approximates it; ≥ and ≤ were set here for values at or beyond the usual limits of such assays. The settings on record: source organism: Limestone Canyon virus.
For assay [14], the target named is HLA-B*57:01. The description is as above. As to conditions: source organism: Camelpox virus M-96.
Where [15] appears, read: source organism: Vibrio parahaemolyticus K5030.
Where [16] appears, read: source organism: Giardia lamblia ATCC 50803.
[17] abbreviates: source organism: Tick-borne encephalitis virus.
Where [18] appears, read: source organism: Alkhumra hemorrhagic fever virus.
Setting [19] is: source organism: Canarypox virus.
[20] abbreviates: source organism: Vibrio cholerae.
Setting [21] is: source organism: Orthohantavirus puumalaense.

Regarding HLGGFVHAC, in the assay with HLA-A*02:12 (source organism: Haemophilus influenzae), the Kd came out at 0.0268 µM. This lies in the double-digit nanomolar range.

As for AGGWVLWKV, the dissociation constant Kd with HLA-B*51:01 (setting [15]), in the assay with HLA-A*02:03, with HLA-A*02:01 [1] (setting [15]), with HLA-B*57:01 [2] (setting [15]), with HLA-B*46:01 (setting [15]) and with HLA-A*26:01 [3] (setting [15]) was no less than 20 µM throughout. Further, the equilibrium dissociation constant (Kd) was no less than 20 µM in the assay with HLA-A*29:02 (setting [15]); 0.0015 µM with HLA-A*02:11; no less than 20 µM with HLA-A*03:01 [4] (setting [15]); no less than 20 µM with HLA-B*27:03 (setting [15]); no less than 20 µM with HLA-A*02:19 (setting [15]); no less than 20 µM in the assay with HLA-B*18:01 (setting [15]). The Kd with HLA-B*39:01 (setting [15]), with HLA-A*02:12 (setting [15]) and in the assay with HLA-B*15:01 [5] was no less than 20 µM each time.

YFEYIEENKY: the dissociation constant (Kd) in the assay with HLA-A*29:02 (source organism: Homo sapiens) was no more than 0.0001 µM; with HLA-A*01:01 [6], 1.56 µM.

As for ITASKDLCF, the Kd was 0.365 µM with HLA-B*35:01 (setting [16]); no less than 20 µM in the assay with HLA-A*02:01 [7] (setting [16]); no less than 20 µM with HLA-B*44:02 (setting [16]); no less than 20 µM in the assay with HLA-A*26:01 [8] (setting [16]); no less than 20 µM with HLA-B*40:01 (setting [16]); no less than 20 µM with HLA-B*08:01 (setting [16]). The Kd is no less than 20 µM in the assay with HLA-A*31:01 (setting [16]); no less than 20 µM with HLA-B*27:05 (setting [16]); no less than 20 µM with HLA-A*03:01 [9] (setting [16]); no less than 20 µM in the assay with HLA-B*07:02 (setting [16]); no less than 20 µM in the assay with HLA-A*69:01 (setting [16]); 3.85 µM with HLA-C*15:02 (setting [16]). Further, the dissociation constant (Kd) with HLA-B*58:01 (setting [16]) is 0.433 µM; with HLA-B*15:17 [10], 0.0028 µM; with HLA-A*11:01 (setting [16]), no less than 20 µM; with HLA-A*01:01 [11] (setting [16]), 8.69 µM; with HLA-B*15:01 [12] (setting [16]), 0.301 µM.

Regarding WPWNAREDV, the Kd in the assay with HLA-A*24:03 was 5.29 µM; with HLA-B*35:01 (setting [17]), 0.103 µM; in the assay with HLA-A*02:01 [7] (setting [18]) it was no less than 20 µM; with HLA-B*44:02 (setting [18]) it was no less than 20 µM; with HLA-A*26:01 [8] (setting [18]), no less than 20 µM; with HLA-B*40:01 (setting [18]) it was no less than 20 µM. Moreover, the equilibrium dissociation constant (Kd) in the assay with HLA-B*08:01 (setting [17]) is 7.65 µM; in the assay with HLA-A*31:01 (setting [18]), no less than 20 µM; in the assay with HLA-B*27:05 (setting [18]), no less than 20 µM; with HLA-A*03:01 [9] (setting [18]), no less than 20 µM; in the assay with HLA-B*07:02 (setting [17]) it was 0.466 µM; in the assay with HLA-B*58:01 (setting [18]), no less than 20 µM. The Kd in the assay with HLA-A*01:01 [11] (setting [18]) and with HLA-B*15:01 [12] (setting [18]) was no less than 20 µM throughout.

In the case of YMMDGNECP, the dissociation constant (Kd) was no less than 20 µM with HLA-B*51:01 (setting [19]); 0.247 µM with HLA-A*02:01 [1] (setting [19]); no less than 20 µM with HLA-B*57:01 [2] (setting [19]); no less than 20 µM with HLA-B*46:01 (setting [19]); no less than 20 µM with HLA-A*26:01 [3] (setting [19]); no less than 20 µM in the assay with HLA-A*29:02 (setting [19]). The equilibrium dissociation constant (Kd) with HLA-A*03:01 [4] (setting [19]) is no less than 20 µM; in the assay with HLA-B*27:03 (setting [19]), no less than 20 µM; with HLA-A*02:19 (setting [19]), 0.2 µM; in the assay with HLA-B*18:01 (setting [19]), no less than 20 µM; with HLA-B*15:17 [13], no less than 20 µM; with HLA-B*39:01 (setting [19]), no less than 20 µM.

In the assay with HLA-C*15:02 (source organism: Caenorhabditis elegans), TNFEFFGKL displayed a Kd of 1.6 µM.

As for KEDPGDHIF, the Kd was 0.224 µM with HLA-B*35:01 (setting [20]); no less than 20 µM in the assay with HLA-A*02:01 [7] (setting [20]); no less than 20 µM with HLA-B*44:02 (setting [20]); no less than 20 µM with HLA-A*26:01 [8] (setting [20]); 0.0249 µM with HLA-B*40:01 (setting [20]); no less than 20 µM with HLA-B*08:01 (setting [20]). The Kd with HLA-A*31:01 (setting [20]), with HLA-B*27:05 (setting [20]), with HLA-A*03:01 [9] (setting [20]), with HLA-B*07:02 (setting [20]), in the assay with HLA-A*69:01 (setting [20]) and with HLA-B*58:01 (setting [20]) was no less than 20 µM in each case. The Kd in the assay with HLA-A*11:01 (setting [20]) and with HLA-A*01:01 [11] (setting [20]) was no less than 20 µM throughout.

For the sequence IILKALYML, the Kd with HLA-A*02:01 [7] (setting [21]) is 0.0074 µM; with HLA-A*03:01 [9] (source organism: Limestone Canyon virus) it was no less than 20 µM; in the assay with HLA-A*68:02, no less than 20 µM; with HLA-B*51:01 (setting [21]), no less than 20 µM; in the assay with HLA-B*57:01 [2] (setting [21]), no less than 20 µM; with HLA-B*46:01 (setting [21]) it was no less than 20 µM. The Kd with HLA-A*26:01 [3] (setting [21]), in the assay with HLA-B*27:03 (setting [21]), with HLA-B*18:01 (setting [21]) and with HLA-B*39:01 (setting [21]) was no less than 20 µM in each case.

Regarding KSLVQYIKF, the Kd with HLA-B*57:01 [14] was 0.508 µM; in the assay with HLA-C*15:02 (source organism: Vaccinia virus WR), no less than 20 µM; with HLA-B*58:01 (source organism: Camelpox virus M-96), 0.0635 µM.

As to FGMPNPEGY, in the assay with HLA-A*29:02 (source organism: Desulfuromonas acetoxidans DSM 684), the equilibrium dissociation constant (Kd) stood at 0.0231 µM.
